From article PMC12830992, “Insights into the self-assembly and interaction of sars-cov-2 fusion peptides with biomimetic plasma membranes” (Nature Communications, 2025)

Target: the molecule itself
Assay: atomic force microscopy (topography); peptide mixed at 5 mol% with plasma membrane lipid mixture, Langmuir-Blodgett monolayer compressed to 20 mN/m (liquid-expanded phase), transferred onto mica, imaged in air at room temperature, Peak Force mode

Row | Protein | binding result
1 | KQYGDCLGDIAARDLICAQKFN (Spike (S) glycoprotein of SARS-CoV-2, S2 subunit fusion domain, residues 835-856) [SARS-CoV-2 Spike fusion peptide FP2 (residues 835-856)] | binds
2 | SFIEDLLFNKVTLADAGFIKQY (Spike (S) glycoprotein of SARS-CoV-2, S2 subunit fusion domain, residues 816-837) [SARS-CoV-2 Spike fusion peptide FP1 (residues 816-837)] | binds
